Here are results for one substance from paper PMC9947420.

For the assay, the target named is GST-tagged PEX5-binding domain of X. laevis PEX14 (amino acids 19-78) (Xenopus laevis). Briefly: SEC; Superdex 200 HiLoad 26/600 PG, XBHS buffer with 1 mM DTT; retention volume between 180 and 190 mL. (In gel filtration, larger molecules generally elute earlier.)

By stoichiometry N is commonly meant the number of molecules, sites or subunits per partner or assembly.

In the case of “GST-tagged PEX5-binding domain of X. laevis PEX14 (amino acids 19-78) (domain or fragment)”, the stoichiometry N was found to be 2.
